This series has as its system FMDV 3D polymerase wild type (Foot-and-mouth disease virus C-S8c1?). The series is described as follows: EMSA.

We go through one substance from PMC2928812.

Take “heteropolymeric RNA template-primer of the RNA binding assay”: the binding signal (% RNA retarded) was 62.
